Reference: US20250163137A1 (UNI PHARMA, published 2025)

Assays:
[1] = molecular target: T1, canine FDP (fibrin-fibrinogen degradation products) (canine); experiment: affinity test (RU read-out; instrument not named)
T1 construct: A heterogeneous mixture

[2] = molecular target: T1, canine FDP (fibrin-fibrinogen …); experiment: kinetic analysis, 1:1 binding fit (RU read-out; instrument not named)

T1 sequence (Q9NRC9 whole entry): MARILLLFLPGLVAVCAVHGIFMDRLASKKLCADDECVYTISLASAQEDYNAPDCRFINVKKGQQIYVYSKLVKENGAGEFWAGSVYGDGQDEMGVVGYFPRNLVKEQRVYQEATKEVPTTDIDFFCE

Kd [1]: 5030 nM
Kd [2]: 55.2 nM
koff [2]: 0.0026 s⁻¹
kon [2]: 47100 M⁻¹ s⁻¹
B1: mAb 14G12-5 (antibody, V domains shown)
VH: EVQLVESGGGLVKPGGSLKLSCAASGFAFNAYDMSWVRQTPEKRLEWVAYISSSGDYTYYPDTVKGRFTVSRDNAKSTLYLHMGSLKSEDTAMYYCAVYYHYDEGLDYWGQGTALTVSS
VL: QIVLIQSPAIMSASPGEKVTMTCSASSSVNYMHWYQQKSGTSPKRWIYDTSKLASGVPARFSGSGSGTSYSLTISSMEAEDAATYYCQQWSSNPPTFGGGTKLEIKR
notes: also called 14G12-5 mAb; recombinant antibody 14G12-5
